In patent US20160272683A1 (Novo Nordisk, published 2016):
Numbered stars: 1 amine (or outer) side, 2 acyl side, 3 side chain; on linkers, the order of the positions; unused ones are H or OH. * marks the point of attachment. C20 diacid = O=C(O)CCCCCCCCCCCCCCCCCCC(=O)*; C18 diacid = O=C(O)CCCCCCCCCCCCCCCCC(=O)*; γGlu = O=C(O)[C@H](CCC(=O)[*:2])N[*:1]

T1: human calcitonin receptor (human, UniProt P30988 25-474)
T1 sequence (looked up): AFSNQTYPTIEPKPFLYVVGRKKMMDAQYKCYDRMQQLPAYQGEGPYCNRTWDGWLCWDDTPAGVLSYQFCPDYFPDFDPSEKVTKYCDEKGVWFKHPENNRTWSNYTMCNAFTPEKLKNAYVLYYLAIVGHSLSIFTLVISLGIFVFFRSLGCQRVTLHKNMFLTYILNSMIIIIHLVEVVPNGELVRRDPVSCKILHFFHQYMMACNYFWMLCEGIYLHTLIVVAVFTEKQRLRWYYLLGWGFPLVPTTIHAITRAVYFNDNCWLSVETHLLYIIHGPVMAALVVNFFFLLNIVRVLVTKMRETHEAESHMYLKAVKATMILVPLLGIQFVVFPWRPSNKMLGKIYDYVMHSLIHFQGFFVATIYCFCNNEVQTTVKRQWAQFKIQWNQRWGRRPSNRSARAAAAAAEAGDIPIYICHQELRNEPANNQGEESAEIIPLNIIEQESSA

T2: human amylin 3(a) receptor (human calcitonin receptor co-expressed with RAMP-3) (human, UniProt P30988 25-474; O60896 24-148, limits assumed)
T2 sequence (looked up) 1: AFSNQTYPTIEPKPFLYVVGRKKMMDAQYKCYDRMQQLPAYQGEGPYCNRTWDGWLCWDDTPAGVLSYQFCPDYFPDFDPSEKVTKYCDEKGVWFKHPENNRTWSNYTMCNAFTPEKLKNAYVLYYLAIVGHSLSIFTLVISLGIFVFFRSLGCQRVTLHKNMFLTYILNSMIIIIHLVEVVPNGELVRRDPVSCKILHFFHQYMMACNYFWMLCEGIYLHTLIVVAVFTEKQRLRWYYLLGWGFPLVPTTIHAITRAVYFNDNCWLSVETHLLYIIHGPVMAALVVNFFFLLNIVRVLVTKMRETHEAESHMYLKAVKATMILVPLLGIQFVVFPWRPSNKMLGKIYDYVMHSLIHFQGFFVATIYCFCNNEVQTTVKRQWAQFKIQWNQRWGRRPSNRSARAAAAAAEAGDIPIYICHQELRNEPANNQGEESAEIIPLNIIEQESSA
T2 sequence (looked up) 2: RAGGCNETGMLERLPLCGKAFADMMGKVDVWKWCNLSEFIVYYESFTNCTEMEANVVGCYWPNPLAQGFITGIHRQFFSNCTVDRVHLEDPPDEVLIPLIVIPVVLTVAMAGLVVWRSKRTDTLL


Columns and labels:
[1] = target: T1, human calcitonin receptor; experiment: cell-based or functional assay
[2] = target: T2, human amylin 3(a) receptor (human …); experiment: cell-based or functional assay

hCTR funct. EC50 (pM) [1] | hAmylin-R funct. EC50 (pM) [2] | Binder
31 pM | 55 pM | {C20 diacid-γGlu}-ASELSTAALGRLSAELHELATLPRTETGSGSL-NH2 (SMILES CC(C)C[C@H](NC(=O)[C@H](CO)NC(=O)CNC(=O)[C@H](CO)NC(=O)CNC(=O)[C@@H](NC(=O)[C@H](CCC(=O)O)NC(=O)[C@@H](NC(=O)[C@H](CCCNC(=N)N)NC(=O)[C@@H]1CCCN1C(=O)[C@H](CC(C)C)NC(=O)[C@@H](NC(=O)[C@H](C)NC(=O)[C@H](CC(C)C)NC(=O)[C@H](CCC(=O)O)NC(=O)[C@H](Cc1c[nH]cn1)NC(=O)[C@H](CC(C)C)NC(=O)[C@H](CCC(=O)O)NC(=O)[C@H](C)NC(=O)[C@H](CO)NC(=O)[C@H](CC(C)C)NC(=O)[C@H](CCCNC(=N)N)NC(=O)CNC(=O)[C@H](CC(C)C)NC(=O)[C@H](C)NC(=O)[C@H](C)NC(=O)[C@@H](NC(=O)[C@H](CO)NC(=O)[C@H](CC(C)C)NC(=O)[C@H](CCC(=O)O)NC(=O)[C@H](CO)NC(=O)[C@H](C)NC(=O)CC[C@H](NC(=O)CCCCCCCCCCCCCCCCCCC(=O)O)C(=O)O)[C@@H](C)O)[C@@H](C)O)[C@@H](C)O)[C@@H](C)O)C(N)=O) [[N-terminal(C20 diacid-gGlu), des1, 30S, 31G, 33L]mimylin]
38 pM | 63 pM | {C20 diacid-γGlu}-ASELSTAALGRLSAELHELATLPRTETGSGSS-NH2 (SMILES CC(C)C[C@H](NC(=O)[C@H](C)NC(=O)[C@H](C)NC(=O)[C@@H](NC(=O)[C@H](CO)NC(=O)[C@H](CC(C)C)NC(=O)[C@H](CCC(=O)O)NC(=O)[C@H](CO)NC(=O)[C@H](C)NC(=O)CC[C@H](NC(=O)CCCCCCCCCCCCCCCCCCC(=O)O)C(=O)O)[C@@H](C)O)C(=O)NCC(=O)N[C@@H](CCCNC(=N)N)C(=O)N[C@@H](CC(C)C)C(=O)N[C@@H](CO)C(=O)N[C@@H](C)C(=O)N[C@@H](CCC(=O)O)C(=O)N[C@@H](CC(C)C)C(=O)N[C@@H](Cc1c[nH]cn1)C(=O)N[C@@H](CCC(=O)O)C(=O)N[C@@H](CC(C)C)C(=O)N[C@@H](C)C(=O)N[C@H](C(=O)N[C@@H](CC(C)C)C(=O)N1CCC[C@H]1C(=O)N[C@@H](CCCNC(=N)N)C(=O)N[C@H](C(=O)N[C@@H](CCC(=O)O)C(=O)N[C@H](C(=O)NCC(=O)N[C@@H](CO)C(=O)NCC(=O)N[C@@H](CO)C(=O)N[C@@H](CO)C(N)=O)[C@@H](C)O)[C@@H](C)O)[C@@H](C)O) [[N-terminal(C20 diacid-gGlu), des1, 30S, 31G, 33S]mimylin]
37 pM | 46 pM | {C20 diacid-γGlu}-ASELSTAALGRLSAELHELATLPRTETGSGSY-NH2 (SMILES CC(C)C[C@H](NC(=O)[C@H](C)NC(=O)[C@H](C)NC(=O)[C@@H](NC(=O)[C@H](CO)NC(=O)[C@H](CC(C)C)NC(=O)[C@H](CCC(=O)O)NC(=O)[C@H](CO)NC(=O)[C@H](C)NC(=O)CC[C@H](NC(=O)CCCCCCCCCCCCCCCCCCC(=O)O)C(=O)O)[C@@H](C)O)C(=O)NCC(=O)N[C@@H](CCCNC(=N)N)C(=O)N[C@@H](CC(C)C)C(=O)N[C@@H](CO)C(=O)N[C@@H](C)C(=O)N[C@@H](CCC(=O)O)C(=O)N[C@@H](CC(C)C)C(=O)N[C@@H](Cc1c[nH]cn1)C(=O)N[C@@H](CCC(=O)O)C(=O)N[C@@H](CC(C)C)C(=O)N[C@@H](C)C(=O)N[C@H](C(=O)N[C@@H](CC(C)C)C(=O)N1CCC[C@H]1C(=O)N[C@@H](CCCNC(=N)N)C(=O)N[C@H](C(=O)N[C@@H](CCC(=O)O)C(=O)N[C@H](C(=O)NCC(=O)N[C@@H](CO)C(=O)NCC(=O)N[C@@H](CO)C(=O)N[C@@H](Cc1ccc(O)cc1)C(N)=O)[C@@H](C)O)[C@@H](C)O)[C@@H](C)O) [[N-terminal(C20 diacid-gGlu), des1, 30S, 31G, 33Y]mimylin]

The remaining lines, values behind:

Binder | hCTR funct. EC50 (pM) [1] | hAmylin-R funct. EC50 (pM) [2]
{C18 diacid-γGlu}-ASELSTAALGRLSAELHELATYPRTETGSGSP-NH2 (SMILES CC(C)C[C@H](NC(=O)[C@H](C)NC(=O)[C@H](C)NC(=O)[C@@H](NC(=O)[C@H](CO)NC(=O)[C@H](CC(C)C)NC(=O)[C@H](CCC(=O)O)NC(=O)[C@H](CO)NC(=O)[C@H](C)NC(=O)CC[C@H](NC(=O)CCCCCCCCCCCCCCCCC(=O)O)C(=O)O)[C@@H](C)O)C(=O)NCC(=O)N[C@@H](CCCNC(=N)N)C(=O)N[C@@H](CC(C)C)C(=O)N[C@@H](CO)C(=O)N[C@@H](C)C(=O)N[C@@H](CCC(=O)O)C(=O)N[C@@H](CC(C)C)C(=O)N[C@@H](Cc1c[nH]cn1)C(=O)N[C@@H](CCC(=O)O)C(=O)N[C@@H](CC(C)C)C(=O)N[C@@H](C)C(=O)N[C@H](C(=O)N[C@@H](Cc1ccc(O)cc1)C(=O)N1CCC[C@H]1C(=O)N[C@@H](CCCNC(=N)N)C(=O)N[C@H](C(=O)N[C@@H](CCC(=O)O)C(=O)N[C@H](C(=O)NCC(=O)N[C@@H](CO)C(=O)NCC(=O)N[C@@H](CO)C(=O)N1CCC[C@H]1C(N)=O)[C@@H](C)O)[C@@H](C)O)[C@@H](C)O) [[N-terminal(C18 diacid-gGlu), des1, 23Y, 30S, 31G]mimylin] | 10 pM | 10 pM
{C20 diacid-γGlu}-ASELSTAALGRLSAELHELATLPRTETGSGSF-NH2 (SMILES CC(C)C[C@H](NC(=O)[C@H](C)NC(=O)[C@H](C)NC(=O)[C@@H](NC(=O)[C@H](CO)NC(=O)[C@H](CC(C)C)NC(=O)[C@H](CCC(=O)O)NC(=O)[C@H](CO)NC(=O)[C@H](C)NC(=O)CC[C@H](NC(=O)CCCCCCCCCCCCCCCCCCC(=O)O)C(=O)O)[C@@H](C)O)C(=O)NCC(=O)N[C@@H](CCCNC(=N)N)C(=O)N[C@@H](CC(C)C)C(=O)N[C@@H](CO)C(=O)N[C@@H](C)C(=O)N[C@@H](CCC(=O)O)C(=O)N[C@@H](CC(C)C)C(=O)N[C@@H](Cc1c[nH]cn1)C(=O)N[C@@H](CCC(=O)O)C(=O)N[C@@H](CC(C)C)C(=O)N[C@@H](C)C(=O)N[C@H](C(=O)N[C@@H](CC(C)C)C(=O)N1CCC[C@H]1C(=O)N[C@@H](CCCNC(=N)N)C(=O)N[C@H](C(=O)N[C@@H](CCC(=O)O)C(=O)N[C@H](C(=O)NCC(=O)N[C@@H](CO)C(=O)NCC(=O)N[C@@H](CO)C(=O)N[C@@H](Cc1ccccc1)C(N)=O)[C@@H](C)O)[C@@H](C)O)[C@@H](C)O) [[N-terminal(C20 diacid-gGlu), des1, 30S, 31G, 33F]mimylin] | 40 pM | 50 pM
{C20 diacid-γGlu}-ASELSTAALGRLSAELHELATLPRTETGSGSH-NH2 (SMILES CC(C)C[C@H](NC(=O)[C@H](C)NC(=O)[C@H](C)NC(=O)[C@@H](NC(=O)[C@H](CO)NC(=O)[C@H](CC(C)C)NC(=O)[C@H](CCC(=O)O)NC(=O)[C@H](CO)NC(=O)[C@H](C)NC(=O)CC[C@H](NC(=O)CCCCCCCCCCCCCCCCCCC(=O)O)C(=O)O)[C@@H](C)O)C(=O)NCC(=O)N[C@@H](CCCNC(=N)N)C(=O)N[C@@H](CC(C)C)C(=O)N[C@@H](CO)C(=O)N[C@@H](C)C(=O)N[C@@H](CCC(=O)O)C(=O)N[C@@H](CC(C)C)C(=O)N[C@@H](Cc1c[nH]cn1)C(=O)N[C@@H](CCC(=O)O)C(=O)N[C@@H](CC(C)C)C(=O)N[C@@H](C)C(=O)N[C@H](C(=O)N[C@@H](CC(C)C)C(=O)N1CCC[C@H]1C(=O)N[C@@H](CCCNC(=N)N)C(=O)N[C@H](C(=O)N[C@@H](CCC(=O)O)C(=O)N[C@H](C(=O)NCC(=O)N[C@@H](CO)C(=O)NCC(=O)N[C@@H](CO)C(=O)N[C@@H](Cc1c[nH]cn1)C(N)=O)[C@@H](C)O)[C@@H](C)O)[C@@H](C)O) [[N-terminal(C20 diacid-gGlu), des1, 30S, 31G, 33H]mimylin] | 48 pM | 53 pM
